Measurements taken from doi:10.1101/2023.05.14.540690.

Target: stressed NISTmAb monoclonal antibody
Experiment: AUC; sedimentation velocity at 50,000 rpm and 20 °C; c(s) analysis in SEDFIT (command line operated, and repeated manually on the same data); stressed, partially denatured sample

Q: How did the percent of signal in higher aggregates (command line analysis) turn out when stressed NISTmAb monoclonal antibody was run?
A: 51.8%

Q: And the percent of signal in higher aggregates (manual analysis of the same data)?
A: 51.7%

Q: What about the percent of signal in the dimer peak of the same substance?
A: 12.5%

Q: What about the stoichiometry N of the same substance?
A: 2
